Drawing on paper PMC9482650, “Quantitative fragmentomics allow affinity mapping of interactomes” (Nature Communications, 2022), this text covers pKd for 4 molecules.

Some targets named below: MAGI2_6, Q86UL8; MAST2, Q6P0Q8; Inadl_4, Q8NI35; GRIP2_4, Q9C0E4; PDLIM1, O00151; CASK, O14936; ARHGEF12, Q9NZN5-2; PTPN3, P26045; DLG4_1, P78352; FRMPD2_2, Q68DX3.
What all share (assay): holdup assay
What all share (parameters): key: below the threshold = too weak to quantify, mostly under pKd 3.1 to 4
Conditions in all cases: plain residues with an end cap or a label only (N-terminal biotin on a linker: ado-ado)

For another assay, the target named is T1, APBA1_2, Q02410.
T1 sequence (Q02410 742-832, limits assumed, looked up): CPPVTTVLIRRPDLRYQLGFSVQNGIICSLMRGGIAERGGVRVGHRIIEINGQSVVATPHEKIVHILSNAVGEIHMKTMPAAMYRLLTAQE

For another assay, the target named is T2, SNTB1, Q13884.
T2 sequence (Q13884 107-205, limits assumed, looked up): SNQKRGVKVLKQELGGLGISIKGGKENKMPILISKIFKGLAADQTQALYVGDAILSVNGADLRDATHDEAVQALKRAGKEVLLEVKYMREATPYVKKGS

Another assay concerns the target T3, PDZD7_3, Q9H5P4.
T3 sequence (Q9H5P4 857-944, limits assumed, looked up): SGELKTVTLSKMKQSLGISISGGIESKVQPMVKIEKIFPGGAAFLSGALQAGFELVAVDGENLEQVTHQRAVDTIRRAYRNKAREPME

For another assay, the target named is T4, NHERF3_3, Q5T2W1.
T4 sequence (Q5T2W1 238-333, limits assumed, looked up): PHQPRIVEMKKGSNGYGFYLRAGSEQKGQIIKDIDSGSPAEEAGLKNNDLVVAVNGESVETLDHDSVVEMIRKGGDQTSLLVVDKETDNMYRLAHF

In a further assay the target is T5, MPP2, Q14168.
T5 sequence (Q14168 180-250, limits assumed, looked up): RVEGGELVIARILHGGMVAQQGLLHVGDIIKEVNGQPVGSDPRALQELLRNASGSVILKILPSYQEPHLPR

A further assay concerns the target T6, MPP7, Q5T2T1.
T6 sequence (Q5T2T1 134-230, limits assumed, looked up): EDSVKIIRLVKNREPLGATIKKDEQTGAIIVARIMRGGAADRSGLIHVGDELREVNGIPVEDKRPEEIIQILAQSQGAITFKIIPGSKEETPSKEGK

A further assay deals with T7, APBA2_2, Q99767.
T7 sequence (Q99767 654-744, limits assumed, looked up): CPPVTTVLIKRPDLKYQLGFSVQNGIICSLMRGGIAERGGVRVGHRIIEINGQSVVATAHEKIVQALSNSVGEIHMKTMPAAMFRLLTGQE

For a further assay, the target named is T8, LIN7B, Q9HAP6.
T8 sequence (Q9HAP6 88-185, limits assumed, looked up): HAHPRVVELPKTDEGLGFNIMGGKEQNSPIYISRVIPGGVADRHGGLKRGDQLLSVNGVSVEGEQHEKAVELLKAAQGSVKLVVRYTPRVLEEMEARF

The target in a further assay is T9, NHERF3_4, Q5T2W1.
T9 sequence (Q5T2W1 373-468, limits assumed, looked up): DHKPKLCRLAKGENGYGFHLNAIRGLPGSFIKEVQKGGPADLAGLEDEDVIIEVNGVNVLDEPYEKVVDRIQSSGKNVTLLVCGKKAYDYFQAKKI

A further assay deals with T10, TX1BP3, O14907.
T10 sequence (O14907 10-122, limits assumed, looked up): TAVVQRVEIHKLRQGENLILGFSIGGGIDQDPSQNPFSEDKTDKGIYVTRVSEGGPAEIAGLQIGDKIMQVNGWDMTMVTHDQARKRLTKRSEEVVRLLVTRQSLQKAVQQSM

The target in a further assay is T11, SIPA1L2, Q9P2F8.
T11 sequence (Q9P2F8 945-1036, limits assumed, looked up): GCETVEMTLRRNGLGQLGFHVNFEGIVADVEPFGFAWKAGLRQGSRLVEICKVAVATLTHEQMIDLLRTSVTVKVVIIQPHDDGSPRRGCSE

A further assay concerns the target T12, GRIP1_5, Q9Y3R0.
T12 sequence (Q9Y3R0 568-668, limits assumed, looked up): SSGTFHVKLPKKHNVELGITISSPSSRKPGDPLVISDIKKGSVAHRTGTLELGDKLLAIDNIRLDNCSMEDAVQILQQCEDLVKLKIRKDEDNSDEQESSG

The next assay deals with T13, ARHGAP21, Q5T5U3.
T13 sequence (Q5T5U3 45-169, limits assumed, looked up): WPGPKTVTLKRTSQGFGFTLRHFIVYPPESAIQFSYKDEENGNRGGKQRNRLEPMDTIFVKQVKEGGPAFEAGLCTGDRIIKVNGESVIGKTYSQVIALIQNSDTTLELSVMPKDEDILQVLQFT

The next assay concerns the target T14, MPDZ_5, O75970.
T14 sequence (O75970 695-796, limits assumed, looked up): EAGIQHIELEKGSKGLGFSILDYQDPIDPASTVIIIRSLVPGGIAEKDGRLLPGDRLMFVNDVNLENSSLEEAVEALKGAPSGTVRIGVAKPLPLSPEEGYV

CASK, O14936, sequence (O14936 487-570): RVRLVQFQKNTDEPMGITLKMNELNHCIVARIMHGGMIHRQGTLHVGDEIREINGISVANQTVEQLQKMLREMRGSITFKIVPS
DLG4_1, P78352, sequence (P78352 62-152): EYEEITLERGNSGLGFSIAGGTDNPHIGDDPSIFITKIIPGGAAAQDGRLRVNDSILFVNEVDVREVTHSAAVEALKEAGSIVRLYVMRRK
MAGI2_6, Q86UL8, sequence (Q86UL8 1141-1229): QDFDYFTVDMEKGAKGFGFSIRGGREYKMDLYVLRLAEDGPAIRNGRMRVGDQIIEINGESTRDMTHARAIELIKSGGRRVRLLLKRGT
Inadl_4, Q8NI35, sequence (Q8NI35 547-651): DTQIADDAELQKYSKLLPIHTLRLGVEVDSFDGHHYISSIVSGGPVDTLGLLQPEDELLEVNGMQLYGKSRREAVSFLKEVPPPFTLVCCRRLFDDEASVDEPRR
FRMPD2_2, Q68DX3, sequence (Q68DX3 944-1038): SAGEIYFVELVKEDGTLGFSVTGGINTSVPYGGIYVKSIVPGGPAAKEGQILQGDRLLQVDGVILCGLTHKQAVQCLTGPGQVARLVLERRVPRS
MAST2, Q6P0Q8, sequence (Q6P0Q8 1099-1202): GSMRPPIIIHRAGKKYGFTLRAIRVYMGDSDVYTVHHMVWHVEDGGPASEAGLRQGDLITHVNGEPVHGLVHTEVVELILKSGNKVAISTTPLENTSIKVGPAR
GRIP2_4, Q9C0E4, sequence (Q9C0E4 446-548): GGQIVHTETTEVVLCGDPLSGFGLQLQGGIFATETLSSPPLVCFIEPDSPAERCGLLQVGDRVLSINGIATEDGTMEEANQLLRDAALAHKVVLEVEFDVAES
PTPN3, P26045, sequence (P26045 505-587): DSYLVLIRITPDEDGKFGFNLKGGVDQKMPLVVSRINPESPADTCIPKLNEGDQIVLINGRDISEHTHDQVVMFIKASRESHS
PDLIM1, O00151, sequence (O00151 1-87): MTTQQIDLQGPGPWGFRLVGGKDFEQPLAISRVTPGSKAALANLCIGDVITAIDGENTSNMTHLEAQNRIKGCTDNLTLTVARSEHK
ARHGEF12, Q9NZN5-2, sequence (Q9NZN5 other isoform, or with tags, fused parts or gaps): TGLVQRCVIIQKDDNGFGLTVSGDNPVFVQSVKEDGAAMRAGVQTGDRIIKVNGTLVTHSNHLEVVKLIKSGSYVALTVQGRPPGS

ARSAAASNYV [CLDN4, O14493]: the pKd entry with MAGI2_6, Q86UL8 is “below the threshold”; with APBA1_2, Q02410, 3.83; with MAST2, Q6P0Q8 it was “below the threshold”; in the assay with Inadl_4, Q8NI35, “below the threshold”; in the assay with GRIP2_4, Q9C0E4 it was “below the threshold”; with PDLIM1, O00151, “below the threshold”. For the same molecule, the negative-log Kd (pKd) result with SNTB1, Q13884 is “below the threshold”; with PDZD7_3, Q9H5P4 it was “below the threshold”; with NHERF3_3, Q5T2W1, “below the threshold”; with MPP2, Q14168 it was “below the threshold”; in the assay with MPP7, Q5T2T1, “below the threshold”; in the assay with CASK, O14936, “below the threshold”. Further, the pKd with ARHGEF12, Q9NZN5-2 is 3.73; in the assay with PTPN3, P26045 it was “below the threshold”; with APBA2_2, Q99767, “below the threshold”; with LIN7B, Q9HAP6, “below the threshold”; in the assay with NHERF3_4, Q5T2W1, “below the threshold”; with DLG4_1, P78352, 3.54. The negative logarithm of the Kd (pKd) entry with TX1BP3, O14907 was “below the threshold”; with SIPA1L2, Q9P2F8 it was 3.53; in the assay with GRIP1_5, Q9Y3R0 it was “below the threshold”; in the assay with FRMPD2_2, Q68DX3, “below the threshold”; with ARHGAP21, Q5T5U3, 3.9; with MPDZ_5, O75970 it was “below the threshold”.

As to NTLNRKTTPV [CACNG8, Q8WXS5], the pKd entry is “below the threshold” in the assay with MAGI2_6, Q86UL8; 3.91 with APBA1_2, Q02410; 4.83 with MAST2, Q6P0Q8; “below the threshold” with Inadl_4, Q8NI35; 3.52 with GRIP2_4, Q9C0E4; “below the threshold” with PDLIM1, O00151. The pKd was 4.07 with SNTB1, Q13884; 4.56 with PDZD7_3, Q9H5P4; “below the threshold” with NHERF3_3, Q5T2W1; “below the threshold” in the assay with MPP2, Q14168; “below the threshold” with MPP7, Q5T2T1; “below the threshold” in the assay with CASK, O14936. For the same molecule, the pKd with ARHGEF12, Q9NZN5-2 was 4.05; in the assay with PTPN3, P26045 it was 4.98; with APBA2_2, Q99767 it was “below the threshold”; in the assay with LIN7B, Q9HAP6, “below the threshold”; in the assay with NHERF3_4, Q5T2W1 it was 3.66; in the assay with DLG4_1, P78352, 4.4. Besides, the pKd is 5.01 in the assay with TX1BP3, O14907; “below the threshold” with SIPA1L2, Q9P2F8; 3.48 with GRIP1_5, Q9Y3R0; 3.85 with FRMPD2_2, Q68DX3; 3.86 with ARHGAP21, Q5T5U3; “below the threshold” in the assay with MPDZ_5, O75970.

Regarding ARGPPRESEV [FAM110D, Q8TAY7], the pKd in the assay with MAGI2_6, Q86UL8 was 4.3; in the assay with APBA1_2, Q02410 it was 3.69; with MAST2, Q6P0Q8, 4.89; in the assay with Inadl_4, Q8NI35 it was “below the threshold”; with GRIP2_4, Q9C0E4, “below the threshold”; in the assay with PDLIM1, O00151 it was 3.71. Also, the pKd with SNTB1, Q13884 was 5.12; with PDZD7_3, Q9H5P4 it was 4.47; in the assay with NHERF3_3, Q5T2W1 it was “below the threshold”; in the assay with MPP2, Q14168 it was “below the threshold”; with MPP7, Q5T2T1, “below the threshold”; in the assay with CASK, O14936, “below the threshold”. Besides, the pKd with ARHGEF12, Q9NZN5-2 is 3.82; with PTPN3, P26045 it was 4.94; in the assay with APBA2_2, Q99767, “below the threshold”; with LIN7B, Q9HAP6 it was “below the threshold”; in the assay with NHERF3_4, Q5T2W1, “below the threshold”; in the assay with DLG4_1, P78352 it was 4.83. In addition, the pKd with TX1BP3, O14907 was 5.24; in the assay with SIPA1L2, Q9P2F8 it was “below the threshold”; in the assay with GRIP1_5, Q9Y3R0, “below the threshold”; in the assay with FRMPD2_2, Q68DX3, 3.5; with ARHGAP21, Q5T5U3, 3.8; with MPDZ_5, O75970 it was “below the threshold”.

Consider PTPDLPQTRV [KLHDC7A, Q5VTJ3], for which the pKd with MAGI2_6, Q86UL8 was 3.61; in the assay with APBA1_2, Q02410, 3.54; with MAST2, Q6P0Q8, 5.2; with Inadl_4, Q8NI35, “below the threshold”; with GRIP2_4, Q9C0E4 it was “below the threshold”; with PDLIM1, O00151, “below the threshold”. Further, the pKd with SNTB1, Q13884 is 4.95; with PDZD7_3, Q9H5P4, 5.04; with NHERF3_3, Q5T2W1 it was “below the threshold”; with MPP2, Q14168, “below the threshold”; with MPP7, Q5T2T1, “below the threshold”; in the assay with CASK, O14936, “below the threshold”. In addition, the pKd is 4.13 with ARHGEF12, Q9NZN5-2; “below the threshold” with PTPN3, P26045; “below the threshold” with APBA2_2, Q99767; 3.89 with LIN7B, Q9HAP6; “below the threshold” with NHERF3_4, Q5T2W1; “below the threshold” in the assay with DLG4_1, P78352. For the same molecule, the pKd entry with TX1BP3, O14907 is “below the threshold”; in the assay with SIPA1L2, Q9P2F8 it was “below the threshold”; with GRIP1_5, Q9Y3R0 it was “below the threshold”; with FRMPD2_2, Q68DX3, 3.8; in the assay with ARHGAP21, Q5T5U3, “below the threshold”; in the assay with MPDZ_5, O75970 it was “below the threshold”.

In general, pKd refers to the negative decadic logarithm of the Kd, by convention in mol/L.
